These results are taken from patent publication US6784337.

For test [1], the target named is trypsin. The test can be described thus: cell-based or functional assay.
Test [2] has as its target Papain (UniProt P00784). The test can be described thus: cell-based or functional assay.
Chain of UniProt P00784 (P00784 134-345 limits assumed): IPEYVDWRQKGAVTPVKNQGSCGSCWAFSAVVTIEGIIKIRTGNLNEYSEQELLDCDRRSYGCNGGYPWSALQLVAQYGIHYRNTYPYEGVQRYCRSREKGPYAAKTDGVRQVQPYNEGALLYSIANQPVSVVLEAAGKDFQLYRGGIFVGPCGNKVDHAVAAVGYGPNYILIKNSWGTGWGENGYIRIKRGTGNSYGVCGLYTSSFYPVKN

“Oc-IΔD86/go/CpTI fusion protein (from UniProt P09229 39-140)” yielded an inhibition of trypsin activity (relative inhibition assay, substrate N-Cbz-Phe-Arg-7-amido-4-methylcoumarin) in test [1] of 95%. Moreover, the inhibition of papain activity (relative inhibition assay, substrate N-Cbz-Phe-Arg-7-amido-4-methylcoumarin) in test [2] came to 95%.
For “Oc-IΔD86/PsMTa/CpTI fusion protein (products of the construct) (from UniProt P09229 39-140)”, in test [1], the inhibition of trypsin activity (relative inhibition assay, substrate N-Cbz-Phe-Arg-7-amido-4-methylcoumarin) was 95%. In addition, in test [2], the inhibition of papain activity (relative inhibition assay, substrate N-Cbz-Phe-Arg-7-amido-4-methylcoumarin) was found to be 95%.
